Key:
Format in all cases: cell-based
[1] = tested on: Ag5 specific spleen cells from BALB/c mice; experiment: In vitro proliferation assay, spleen cells of Ag5-immunized BALB/c mice; conditions: spleen cells from mice immunized with rAg5; blank 3970 cpm
Description: (§1) FIG. 4. Stimulation index profile of BALB/c mice spleens after 4 immunizations with natural (n)-Ag5. In vitro proliferation assays were performed with peptides at three concentrations: 1×10^-5 M (open bar), 1.25×10^-6 M ("uphill" hatch), and 1.56×10^-7 M ("downhill" hatch). The corresponding concentrations of recombinant antigen 5 control were 1.0×10^-6 M, 1.25×10^-7, and 1.56×10^-8 M. The blank was 2200 cpm.
as §1, with “5.” for “4.”, “recombinant (r)-Ag5.” for “natural (n)-Ag5.”, “Antigen” for “antigen”, “5” for “5 control”, “4700” for “2200”
FIG. 6. […] In vitro proliferation assays were performed with peptides at three concentrations: 1×10^-5 M (open bar), 1.25×10^-6 M ("uphill" hatch), and 1.56×10^-7 M ("downhill" hatch). The corresponding concentrations of recombinant Antigen 5 were 1.0×10^-6 M, 1.25×10^-7, and 1.56×10^-8 M. […]
(§2) The peptides of the invention can be tested in a proliferation assay for T cell responses. Generally, lymphocytes from a sensitized host are obtained. The host can be a mouse that has been immunized with a vespid venom antigen 5, or with a crossreactive protein, such as testes specific protein. Using techniques that are well known in the art, T lymphocyte response to the peptide can be measured in vitro. In a specific embodiment, infra, T cell responses are detected by measuring incorporation of ^3 H-thymidine, which increases with DNA synthesis associated with proliferation. Cell proliferation can also be detected using an MTT assay [Mossman, J. Immunol. Methods, 65:55-63,(1983); Niks and Otto, J. Immunol. Methods, 130:140-151 (1990)]. Alternatively, lymphokine production assays can be practiced according to the present invention. In one embodiment, lymphokine production can be assayed using immunological or co-stimulation assays [see, e.g., Fehlner et al., J. Immunol., 146:799 (1991)] or using the ELISPOT technique [Czerkinsky, et al., J. Immunol. Methods, 110:29 (1988)]. Alternatively, mRNA for lymphokines can be detected, e.g., by amplification [see Brenner, et al., Biotechniques, 7:1096 (1989)] or in situ hybridization [see, e.g., Kasaian and Biron, J. Immunol., 142:1287 (1989)]. Of particular interest are those individuals whose T cells produce lymphokines associated with IgE isotype switch events, e.g., IL-4 and IL-5 [Purkeson and Isakson, J. Exp. Med., 175:973-982 (1992)]. Also of interest are the peptide fragments of the vespid venom antigen 5 that contain epitopes recognized by T cells involved in IgE switch events. […]

[2] = tested on: r-Ag5 specific spleen cells from P/J mice; experiment: In vitro proliferation assay, spleen cells of r-Ag5-immunized P/J mice; conditions: spleen cells from mice immunized 5 times with rAg5; blank 1730 cpm
Description: (§3) FIG. 12. Stimulation index profile of P/J mice spleens after 5 immunizations with r-Ag5. In vitro proliferation assays were performed with peptides at three concentrations: 1×10^-5 M (open bar), 1.25×10^-6 M ("uphill" hatch), and 1.56×10^-7 M ("downhill" hatch). The corresponding concentrations of recombinant Antigen 5 were 1.0 ×10^-6 M, 1.25×10^-7, and 1.56×10^-8 M. The blank was 1730 cpm.
The peptides of the invention can be tested in a proliferation assay for T cell responses. Generally, lymphocytes from a sensitized host are obtained. The host can be a mouse that has been immunized with a vespid venom antigen 5, or with a crossreactive protein, such as testes specific protein. Using techniques that are well known in the art, T lymphocyte response to the peptide can be measured in vitro. In a specific embodiment, infra, T cell responses are detected by measuring incorporation of ^3 H-thymidine, which increases with DNA synthesis associated with proliferation. Cell proliferation can also be detected using an MTT assay [Mossman, J. Immunol. Methods, 65:55-63,(1983); Niks and Otto, J. Immunol. Methods, 130:140-151 (1990)]. […] Alternatively, mRNA for lymphokines can be detected, e.g., by amplification [see Brenner, et al., Biotechniques, 7:1096 (1989)] or in situ hybridization [see, e.g., Kasaian and Biron, J. Immunol., 142:1287 (1989)]. […]

[3] = tested on: r-Ag5 specific spleen cells from ASW/Sn mice; experiment: In vitro proliferation assay, spleen cells of r-Ag5-immunized ASW/Sn mice; conditions: spleen cells from mice immunized 5 times with rAg5; blank 5640 cpm
Description: as §3, with “11.” for “12.”, “ASW/sn” for “P/J”, “1.0×10^-6” for “1.0 ×10^-6”, “5640” for “1730”
as §2

B1: r-Ag5: recombinant white faced hornet (Dolichovespula maculata) antigen 5 form 2, Dol m 5.02 (protein)
chain: NNYCKIKCSRGIHTLCKFGTSMKPNCGSKLVKVHGVSNDEKNEIVNRHNQFRQKVAKGLETRGNPGPQPPAKNMNVLVWNDELAKIAQTWANQCSFGHDQCRNTEKYQVGQNVAIASTTGNSYATMSKLIEMWENEVKDFNPKKGTMGDNNFSKVGHYTQMVWGKTKEIGCGSVKYIENNWHTHYLVCNYGPAGNYMDQPIYERK
- Stimulation Index BALB/c [1]: 20.9
- Stimulation Index P/J [2]: 20.8
- Stimulation Index ASW/Sn [3]: 15.4
